Test results published in patent US20260116996A1 (REGENTS OF THE UNIVERSITY OF MINNESOTA, published 2026).

T1: human serpinB1 (human, UniProt P30740 1-379)
T1 construct: Luminex antigen captured from a 293 cell lysate; not shown: V5-His tag of the pcDNA3.1 Directional V5-His-TOPO vector
T1 sequence (looked up): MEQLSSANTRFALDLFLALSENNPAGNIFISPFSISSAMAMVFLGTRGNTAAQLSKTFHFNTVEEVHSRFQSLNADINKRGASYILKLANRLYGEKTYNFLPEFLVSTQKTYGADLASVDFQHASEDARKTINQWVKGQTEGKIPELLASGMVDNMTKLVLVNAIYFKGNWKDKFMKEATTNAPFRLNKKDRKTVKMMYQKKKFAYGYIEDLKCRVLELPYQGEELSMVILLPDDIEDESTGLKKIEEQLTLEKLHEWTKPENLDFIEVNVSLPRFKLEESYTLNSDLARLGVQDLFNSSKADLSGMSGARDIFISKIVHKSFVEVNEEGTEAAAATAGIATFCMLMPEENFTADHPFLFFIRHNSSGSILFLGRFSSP

T2: human serpinB9 (human, UniProt P50453 1-376)
T2 construct: Luminex antigen captured from a 293 cell lysate; not shown: V5-His tag of the pcDNA3.1 Directional V5-His-TOPO vector
T2 sequence (looked up): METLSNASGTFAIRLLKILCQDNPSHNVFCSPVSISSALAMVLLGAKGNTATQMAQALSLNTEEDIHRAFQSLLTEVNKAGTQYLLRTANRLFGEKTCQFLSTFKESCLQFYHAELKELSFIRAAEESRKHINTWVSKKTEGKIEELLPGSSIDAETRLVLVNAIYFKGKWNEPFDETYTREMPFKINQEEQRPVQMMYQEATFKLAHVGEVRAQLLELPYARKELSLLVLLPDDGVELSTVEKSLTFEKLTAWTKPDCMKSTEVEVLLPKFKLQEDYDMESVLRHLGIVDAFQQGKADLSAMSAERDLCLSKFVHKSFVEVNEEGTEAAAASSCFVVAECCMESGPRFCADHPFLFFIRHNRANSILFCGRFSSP

T3: human serpinB10 (human, UniProt P48595 1-397)
T3 construct: Luminex antigen captured from a 293 cell lysate; not shown: V5-His tag of the pcDNA3.1 Directional V5-His-TOPO vector
T3 sequence (looked up): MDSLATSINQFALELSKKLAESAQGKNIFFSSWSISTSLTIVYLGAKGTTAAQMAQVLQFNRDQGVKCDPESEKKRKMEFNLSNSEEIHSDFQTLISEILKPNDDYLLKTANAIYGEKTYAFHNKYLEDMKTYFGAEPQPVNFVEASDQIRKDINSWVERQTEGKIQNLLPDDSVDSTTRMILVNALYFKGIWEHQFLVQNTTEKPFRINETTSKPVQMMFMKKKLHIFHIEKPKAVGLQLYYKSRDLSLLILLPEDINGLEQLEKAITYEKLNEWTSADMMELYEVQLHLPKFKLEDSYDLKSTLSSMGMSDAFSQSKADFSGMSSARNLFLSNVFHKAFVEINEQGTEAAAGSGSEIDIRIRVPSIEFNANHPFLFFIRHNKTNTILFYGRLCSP

T4: human serpinB3 (human, UniProt P29508 1-390)
T4 construct: Luminex antigen captured from a 293 cell lysate; not shown: V5-His tag of the pcDNA3.1 Directional V5-His-TOPO vector
T4 sequence (looked up): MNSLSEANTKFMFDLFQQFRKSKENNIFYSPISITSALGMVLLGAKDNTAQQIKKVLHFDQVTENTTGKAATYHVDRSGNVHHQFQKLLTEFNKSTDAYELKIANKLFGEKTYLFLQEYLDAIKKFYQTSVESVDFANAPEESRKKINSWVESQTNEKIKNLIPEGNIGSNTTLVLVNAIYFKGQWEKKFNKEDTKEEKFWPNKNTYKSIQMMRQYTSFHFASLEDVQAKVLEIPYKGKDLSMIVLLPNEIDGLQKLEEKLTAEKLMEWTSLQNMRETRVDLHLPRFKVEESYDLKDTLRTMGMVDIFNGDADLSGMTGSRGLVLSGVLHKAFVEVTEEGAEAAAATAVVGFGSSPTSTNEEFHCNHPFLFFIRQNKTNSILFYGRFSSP

B1: recombinant fully human anti-serpinB13 antibody Clone 3 (antibody, human IgG1, kappa, V domains shown)
VH: QVQLQQWGAGLLKPSETLSLTCAVYGGSFSGYYWSWIRQPPGKGLEWIGEINHSGSTNYNPSLKSRVTISVDTSKNQFSLKLSSVTAADTAVYYCARRYCSGGSCYLVGTGSELDYWGQGTLVTVSS
VL: DIQMTQSPSTLSASVGDRVTITCRASQSISSWLAWYQQKPGKAPKLLIYKASSLEIGVPSRFSGSGYGTEFTLTISSLQPDDFATYYCLQYSTHSTFGQGTRVEIKR
notes: also called mAb3; CLONE3-H(m1) / CLONE3-L(m1)
B2: recombinant fully human anti-serpinB13 antibody Clone 1 (antibody, human IgG1, kappa, V domains shown)
VH: QVQLQESGGGVVQPGRSLRLSCAASGFTFSSYGMHWVRQAPGKGLEWVAVISYDGSNKYYADSVKGRFTISRDNSKNTLYLQMNSLRAEDTAVYYCARDLGAVIAVAGTSTPYNWFDPWGQGTLVTVSS
VL: DVVMTQSPLSLPVTPGEPASISCRSRQSLLHSNGHNYLGWYLQKPGQSPQLLIYLASIRASGIPDRFSGSGSGTDFTLKISRVEAEDVGVYYCMQALQTPYTFGQGTKLEIKR
notes: also called mAb1; mAbs1
B3: recombinant fully human anti-serpinB13 antibody Clone 2 (antibody, human IgG1, kappa, V domains shown)
VH: QMQLVQSGGGVVRPGGSLRLSCAASGFTFDDYGMSWVRQAPGKGLEWVSGINWNGGSTGYADSVKGRFTISRDNAKNSLYLQMNSLRAEDTALYYCARESSMTTVTTYLLREVGVGLDFDYWGQGTLVTVSS
VL: ETTLTQSPGTLSLSPGERATLSCRASQTVSGSYLAWYQQKPGQPPRLLIYGASSRATGIPDRFSGSGSGTDFTLTISRLEPEDFAVYYCQDYGSSRTFGQGTKVELKR
notes: also called mAb2; CLONE2-H(m1) / CLONE2-L(m1)

These binders were tested against T1, human serpinB1 (assay: Luminex bead assay, beads coated with human serpinB1, background (Gfp and Scgn beads) subtracted).
Method: (§1) The latter was determined as the average antibody binding to Luminex beads coated with Gfp and Scgn control antigens. Similar data were obtained for antigen binding of Fab fragments of these antibodies (data not shown).
(§2) Luminex assay. Luminex-based technology was used to measure serpinB13 AA in human samples. Initially, the Luminex beads were precoated with serpinB13, Gfp and Scgn, using precleared lysates of 293 cells that had been transfected with individual cDNAs. Biotinylated mouse anti-human K and 2 chain mAbs (BD Biosciences) (dilution 1:300) and streptavidin (Invitrogen) (dilution 1:200) were used as secondary reagents to measure human serum binding activity to individual antigens. The data were expressed as fluorescence intensity (F.I.) due to serum binding activity in the presence of beads precoated with serpinB13 and after subtracting the average F.I. due to serum binding activity in the presence of beads precoated with control proteins, Gfp and Scgn (e.g. F.I.^B13-[F.I.^GFP+F.I.^Segn]/2). The samples were evaluated based on the level of F.I. and the degree of inhibition of binding to serpin-B13 coated beads with soluble serpinB13 (2.5 μg/mL), compared with the bovine serum albumin (BSA). […] All samples were run blind on three independent occasions. Subjects with serum samples that produced a positive results three times were considered positive. Subjects with serum samples that produced a negative result on at least one occasion were considered negative.
(§3) To determine whether anti-serpin activity is specific, binding of three human recombinant antibodies to serpinB13 was examined for potential cross-reactivity with other clade B serpins. Binding to the beads conjugated with Gfp and Scgn was used to subtract the background and the assay was developed using the same reagents as those described above for measuring serpinB13 AA in serum samples.

Binding result, no binding (tested: 1.0 µg/mL):
B1
B2
B3

What follows are binders tested against T2, human serpinB9 (assay: Luminex bead assay, beads coated with human serpinB9, background (Gfp and Scgn beads) subtracted).
Method: as §1, §2, §3

Binding result, no binding (tested: 1.0 µg/mL):
B1
B2
B3

The binders below were run against T3, human serpinB10 (assay: ELISA cross-reactivity test / Luminex bead assay (FIG. 25)).
Method: (§4) Three recombinant human anti-serpinB13 antibodies were examined in the Luminex-based assay for binding to other clade B serpins, in order as indicated. The final concentration of each antibody was 1.0 μg/mL. The data are expressed as immunofluorescence intensity measured for binding to individual human serpin antigens after subtracting the background. The latter was determined as the average antibody binding to Luminex beads coated with Gfp and Scgn control antigens. Similar data were obtained for antigen binding of Fab fragments of these antibodies (data not shown).
as §2
(§5) To determine whether anti-serpin activity is specific, binding of three human recombinant antibodies to serpinB13 was examined for potential cross-reactivity with other clade B serpins.

Binding result, no binding (tested: 1.0 µg/mL):
B1
B2
B3

These binders were tested against T4, human serpinB3 in the same assay as above.
Method: as §4, §2, §5

Binding result, no binding (tested: 1.0 µg/mL):
B1
B2
B3
